Tests used:
CD4-IgG = CD4-IgG (human, UniProt P01730 26-205); experiment: immunoaffinity chromatography of BT20 conditioned medium on CD4-IgG-Protein A precolumn; SDS-PAGE, silver stain
Method: 200 ml of BT20 conditioned media, concentrated as described above from 12 liters and frozen, was thawed, centrifuged at 17,000 rpm in a Sorvall SS34 rotor, and filtered through a 0.45 μm filter to clarify the solution. The 200 ml was pumped through a 2.0 ml CD4-IgG—Protein A (CD4-IgG covalently linked to Protein A through IgG moiety) immunoaffinity precolumn and a 1.0 ml REK7-IgG - Protein A (REK7-IgG covalently linked to Protein A through IgG moiety) immunoaffinity column in tandem with a flow rate of 0.5 ml/min. All chromatography was carried out at 4° C. Following one complete passage of the media through both columns, the flow rate was reduced to 0.2 ml/min, and the media was recycled through both columns. Following the loading of the REK7-IgG column, the two column were separated from each other, washed with 10 column volumes of PBS, and then eluted with four separate washes of 100 mM sodium citrate, pH 3.0 (2 ml each for the CD4-IgG column and 1 ml each for the REK7-IgG column). The first two washes were allowed to immediately flow through the column whereas the last two were incubated for 15 minutes before collection. The eluates were brought to pH 7.4 by the addition of 50 mM potassium phosphate, and an aliquot of each was analyzed by sodium dodecycl sulfate (SDS)-polyacrylamide gel electrophoresis (PAGE). […]

[1] = target: T1, REK7, endogenous, on rat embryonic (E16) cortical neurons (rat, UniProt P54757 27-1005 at identity 0.97)); experiment: cell-based or functional assay
T1 chain: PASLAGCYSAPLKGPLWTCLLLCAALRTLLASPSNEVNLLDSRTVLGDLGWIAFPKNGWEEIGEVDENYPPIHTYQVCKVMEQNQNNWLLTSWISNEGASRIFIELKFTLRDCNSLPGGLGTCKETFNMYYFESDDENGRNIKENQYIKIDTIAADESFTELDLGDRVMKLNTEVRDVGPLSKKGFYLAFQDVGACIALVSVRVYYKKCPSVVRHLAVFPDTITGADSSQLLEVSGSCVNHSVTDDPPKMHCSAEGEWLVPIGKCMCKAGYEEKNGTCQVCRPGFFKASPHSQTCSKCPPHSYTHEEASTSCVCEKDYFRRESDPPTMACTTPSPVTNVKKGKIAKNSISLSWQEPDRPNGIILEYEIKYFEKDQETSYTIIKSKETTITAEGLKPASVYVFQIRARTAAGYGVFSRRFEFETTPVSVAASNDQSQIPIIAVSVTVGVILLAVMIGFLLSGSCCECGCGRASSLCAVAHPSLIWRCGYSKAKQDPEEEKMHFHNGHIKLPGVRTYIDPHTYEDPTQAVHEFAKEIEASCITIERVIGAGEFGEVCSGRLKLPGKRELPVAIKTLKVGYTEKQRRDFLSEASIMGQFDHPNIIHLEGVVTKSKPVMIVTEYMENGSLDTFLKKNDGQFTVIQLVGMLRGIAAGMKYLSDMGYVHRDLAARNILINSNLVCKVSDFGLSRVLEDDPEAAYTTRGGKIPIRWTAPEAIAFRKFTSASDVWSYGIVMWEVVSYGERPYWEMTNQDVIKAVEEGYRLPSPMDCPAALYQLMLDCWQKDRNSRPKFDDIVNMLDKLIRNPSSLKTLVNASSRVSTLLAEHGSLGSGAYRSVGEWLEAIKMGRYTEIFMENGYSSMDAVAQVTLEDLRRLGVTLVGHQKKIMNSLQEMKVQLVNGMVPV

B1: soluble AL-1 (purified, secreted form without the GPI membrane anchor) (ligand)
chain: QDPGSKAVADRYAVYWNSSNPRFQRGDYHIDVCINDYLDVFCPHYEDSVPEDKTERYVLYMVNFDGYSACDHTSKGFKRWECNRPHSPNGPLKFSEKFQLFTPFSLGFEFRPGREYFYISSAIPDNGRRSCLKLKVFVRPTNSCMKTIGVHDRVFDVNDKVENSLEPADDTVHESAEPSRGEN
notes: also called purified soluble AL-1; REK7 ligand from BT20 conditioned medium
With B1 the binding result (CD4-IgG) was “no binding” and the “tyrosine autophosphorylation of REK7 (immunoprecipitation with anti-REK7, anti-phosphotyrosine immunoblot)” value [1] was about 2 fold.
